{"source": "patent US20180105832A1", "about": "(FRAUNHOFER GESELLSCHAFT ZUR FOERDERUNG DER ANGEWANDTEN …, published 2018)", "binders": {"B1": {"name": "Aspergillus-specific monoclonal antibody AP10 (mAbAP10) (antibody, V domains shown)", "VH": "DVQLVESGGGLVQPGGSRKLSCAASGFTFSSFGMHWVRQAPEKGLEWVAYINGGSGTIYYADTVKGRFTISRDNPRNTLFLQMETTSLRSEDTAMYYCARGGDDPFAYWGQGTLVTV", "VL": "IQMTQSPSSLSAYLGDKVTITCMASQDINNHIAWYQLKPGKGPRLLIHYTSTLHPGIPSRFSGSGSGRDYSFSISDLEPEDIATYYCLQYDNLRTFGGGTKLEIK", "notes": "also called CSP-specific mAbAP10"}}, "biological_target": "T1, Pepscan peptide 3 of CSP (amino acids 25-37) (Aspergillus flavus)", "T1 peptide": "YDDPDCDPGFTCR", "assay": "Pepscan-ELISA", "data": [{"binder": "B1", "values": [{"measurement": "binding efficiency relative to peptide 4", "value": 2, "unit": "fold"}]}]}
